{"source": "paper doi:10.1101/586461", "about": "(bioRxiv, 2019)", "key": {"negative stain EM": {"molecular_target": "the molecule itself", "assay": "negative stain EM"}, "cryo-electron tomography": {"molecular_target": "the molecule itself", "assay": "cryo-electron tomography"}}}
{"protein": "non-tagged human dynamin 1 (hDyn1) (natural protein) MGNRGMEDLIPLVNRLQDAFSAIGQNADLDLPQIAVVGGQSAGKSSVLENFVGRDFLPRGSGIVTRRPLVLQLVNATTEYAEFLHCKGKKFTDFEEVRLEIEAETDRVTGTNKGISPVPINLRVYSPHVLNLTLVDLPGMTKVPVGDQPPDIEFQIRDMLMQFVTKENCLILAVSPANSDLANSDALKVAKEVDPQGQRTIGVITKLDLMDEGTDARDVLENKLLPLRRGYIGVVNRSQKDIDGKKDITAALAAERKFFLSHPSYRHLADRMGTPYLQKVLNQQLTNHIRDTLPGLRNKLQSQLLSIEKEVEEYKNFRPDDPARKTKALLQMVQQFAVDFEKRIEGSGDQIDTYELSGGARINRIFHERFPFELVKMEFDEKELRREISYAIKNIHGIRTGLFTPDMAFETIVKKQVKKIREPCLKCVDMVISELISTVRQCTKKLQQYPRLREEMERIVTTHIREREGRTKEQVMLLIDIELAYMNTNHEDFIGFANAQQRSNQMNKKKTSGNQDEILVIRKGWLTINNIGIMKGGSKEYWFVLTAENLSWYKDDEEKEKKYMLSVDNLKLRDVEKGFMSSKHIFALFNTEQRNVYKDYRQLELACETQEEVDSWKASFLRAGVYPERVGDKEKASETEENGSDSFMHSMDPQLERQVETIRNLVDSYMAIVNKTVRDLMPKTIMHLMINNTKEFIFSELLANLYSCGDQNTLMEESAEQAQRRDEMLRMYHALKEALSIIGDINTTTVSTPMPPPVDDSWLQVQSVPAGRRSPTSSPTPQRRAPAVPPARPGSRGPAPGPPPAGSALGGAPPVPSRPGASPDPFGPPPQVPSRPNRAPPGVPSRSGQASPSRPESPRPPFDL", "values": [{"measurement": "binding result", "setting": "negative stain EM", "value": "binds"}]}
{"protein": "N-terminal His-tagged human dynamin 1 (hDyn1) (natural protein) MGNRGMEDLIPLVNRLQDAFSAIGQNADLDLPQIAVVGGQSAGKSSVLENFVGRDFLPRGSGIVTRRPLVLQLVNATTEYAEFLHCKGKKFTDFEEVRLEIEAETDRVTGTNKGISPVPINLRVYSPHVLNLTLVDLPGMTKVPVGDQPPDIEFQIRDMLMQFVTKENCLILAVSPANSDLANSDALKVAKEVDPQGQRTIGVITKLDLMDEGTDARDVLENKLLPLRRGYIGVVNRSQKDIDGKKDITAALAAERKFFLSHPSYRHLADRMGTPYLQKVLNQQLTNHIRDTLPGLRNKLQSQLLSIEKEVEEYKNFRPDDPARKTKALLQMVQQFAVDFEKRIEGSGDQIDTYELSGGARINRIFHERFPFELVKMEFDEKELRREISYAIKNIHGIRTGLFTPDMAFETIVKKQVKKIREPCLKCVDMVISELISTVRQCTKKLQQYPRLREEMERIVTTHIREREGRTKEQVMLLIDIELAYMNTNHEDFIGFANAQQRSNQMNKKKTSGNQDEILVIRKGWLTINNIGIMKGGSKEYWFVLTAENLSWYKDDEEKEKKYMLSVDNLKLRDVEKGFMSSKHIFALFNTEQRNVYKDYRQLELACETQEEVDSWKASFLRAGVYPERVGDKEKASETEENGSDSFMHSMDPQLERQVETIRNLVDSYMAIVNKTVRDLMPKTIMHLMINNTKEFIFSELLANLYSCGDQNTLMEESAEQAQRRDEMLRMYHALKEALSIIGDINTTTVSTPMPPPVDDSWLQVQSVPAGRRSPTSSPTPQRRAPAVPPARPGSRGPAPGPPPAGSALGGAPPVPSRPGASPDPFGPPPQVPSRPNRAPPGVPSRSGQASPSRPESPRPPFDL", "values": [{"measurement": "binding result", "setting": "cryo-electron tomography", "value": "binds"}]}
{"protein": "Drosophila dynamin Shibire (Shi), wild type (natural protein) MDSLITIVNKLQDAFTSLGVHMQLDLPQIAVVGGQSAGKSSVLENFVGKDFLPRGSGIVTRRPLILQLINGVTEYGEFLHIKGKKFSSFDEIRKEIEDETDRVTGSNKGISNIPINLRVYSPHVLNLTLIDLPGLTKVAIGDQPVDIEQQIKQMIFQFIRKETCLILAVTPANTDLANSDALKLAKEVDPQGVRTIGVITKLDLMDEGTDARDILENKLLPLRRGYIGVVNRSQKDIEGRKDIHQALAAERKFFLSHPSYRHMADRLGTPYLQRVLNQQLTNHIRDTLPGLRDKLQKQMLTLEKEVEEFKHFQPGDASIKTKAMLQMIQQLQSDFERTIEGSGSALVNTNELSGGAKINRIFHERLRFEIVKMACDEKELRREISFAIRNIHGIRVGLFTPDMAFEAIVKRQIALLKEPVIKCVDLVVQELSVVVRMCTAKMSRYPRLREETERIITTHVRQREHSCKEQILLLIDFELAYMNTNHEDFIGFANAQNKSENANKTGTRQLGNQVIRKGHMVIQNLGIMKGGSRPYWFVLTSESISWYKDEDEKEKKFMLPLDGLKLRDIEQGFMSMSRRVTFALFSPDGRNVYKDYKQLELSCETVEDVESWKASFLRAGVYPEKQETQENGDESASEESSSDPQLERQVETIRNLVDSYMKIVTKTTRDMVPKAIMMLIINNAKDFINGELLAHLYASGDQAQMMEESAESATRREEMLRMYRACKDALQIIGDVSMATVSSPLPPPVKNDWLPSGLDNPRLSPPSPGGVRGKPGPPAQSSLGGRNPPLPPSTGRPAPAIPNRPGGGAPPLPGGRPGGSLPPPMLPSRVSGAVGGAIVQQSGANRYVPESMRGQVNQAVGQAAINELSNAFSSRFK", "values": [{"measurement": "binding result", "setting": "cryo-electron tomography", "value": "binds"}]}
